Results on three molecules are retold here after paper PMC12067093 (2025).

First the molecules themselves.
B1: TRIM25 PRYSPRY (protein)
chain: KVLETFLAKSRPELLEYYIKVILDYNTAHNKVALSECYTVASVAEMPQNYRPHPQRFTYCSQVLGLHCYKKGIHYWEVELQKNNFCGVGICYGSMNRQGPESRLGRNSASWCVEWFNTKISAWHNNVEKTLPSTKATRVGVLLNCDHGFVIFFAVADKVHLMYKFRVDFTEALYPAFWVFSAGATLSICSPK
modifications: TRIM25 covalently pre-labelled with heterobifunctional compound HB2
B2: TRIM25 PRYSPRY (protein)
chain: B1 chain
modifications: TRIM25 covalently pre-labelled with heterobifunctional compound HB1
B3: TRIM25 PRYSPRY (protein)
chain: B1 chain
modifications: TRIM25 covalently pre-labelled with heterobifunctional compound HB3

The target in the assay is BRD4 BD2 (Homo sapiens, UniProt O60885). Briefly: SPR. In general terms: In SPR one partner is held on a chip, and binding of the other changes the refractive index at the surface.
As usually defined, the Kd is the free concentration of one partner at which half of the binding sites on the other are occupied at equilibrium, for simple one-to-one binding. Take B1: the Kd came to 20 nM.
Then B2, with 15 nM.
Then B3, with 22.5 nM.
